Assay results reported in patent US6586222 (CHIRON, dated 2003).
The star is where a group is joined. P(O)(OPh)2 = diphenyl phosphonate replacing C-terminal COOH, O=P(Oc1ccccc1)(Oc1ccccc1)*; Boc = CC(C)(C)OC(=O)*

T1: purified, activated recombinant human PR-3 (from proPR-3 secreted by Sf9 insect cells, activated with DPPI) (human, UniProt P24158 28-256)
T1 sequence: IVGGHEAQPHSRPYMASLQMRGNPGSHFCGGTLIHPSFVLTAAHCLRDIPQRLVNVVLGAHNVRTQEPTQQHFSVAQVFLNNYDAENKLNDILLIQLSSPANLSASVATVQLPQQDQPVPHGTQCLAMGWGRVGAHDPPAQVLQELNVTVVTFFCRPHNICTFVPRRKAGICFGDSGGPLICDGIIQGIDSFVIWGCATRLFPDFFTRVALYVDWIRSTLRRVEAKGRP


Target: T1, purified, activated recombinant human …
Assay: cell-based or functional assay

Binder | IC50 of residual enzyme activity (Boc-Ala-ONp substrate, 1 hour at 25° C.)
Boc-Val-Pro-Val-{P(O)(OPh)2} [Boc-Val-Pro-Val-p(OPh)2] | ~0.4 µM
Boc-Ala-Pro-Val-{P(O)(OPh)2} [Boc-Ala-Pro-Val-p(OPh)2] | ~10 µM
